The values that follow come from patent US11235004B2, “Lymphocyte cell lines and uses thereof” (Innovative Cellular Therapeutics Holdings, Ltd., priority 2017, dated 2022).

Assay [1] deals with transduced T cells (ef1a-TK-IRES-rtTA-TRE-hTERT) and non-transduced T cells. The assay can be described thus: Ganciclovir (TK suicide switch) cell growth test. Format: cell-based, human. Conditions: in the presence of GCV. On the procedure: Experimental cells: CD8+CZY-1 SDS-T and NT cell; TK usage: Adult body concentration of 71.45 ng/ml/5000 ng/kg every 24 h injection. In vitro experimental concentration gradients: 357.2 ng/ml, 142.9 ng/ml, 71.45 ng/ml, 35.725 ng/ml, 14.28 ng/ml, 3.6 ng/ml. […] The starting cells were cultured in 200 w cell density of 50 w/ml.
In group three, transduced cells (ef1a-TK-IRES-rtTA-TRE-hTERT) were cultured using media containing Dox (2 μg/ml) and CD19 ECD (1 mg/250,000 CAR T cells). On day 90, various concentrations of GCV was added to the transduced cells. […] DTT cells represent transduced T cells and grew poorly in the presence of GCV.

For a further assay, the system named is CAR T-TSHR cells. The assay can be described thus: Culture of CAR T-TSHR cells with soluble TSHR ECD. Format: cell-based, human. The text has this: Primary T cells were transduced with lentiviral vectors encoding a TSHR CAR to obtain modified T cells including CAR T cells expressing anti-TSHR (thereafter “CAR T-TSHR cells”). The modified T cells were frozen and stored for 30 days. Techniques related to freezing T cells and thawing frozen T cells may be found in Levine et al., Molecular Therapy—Methods & Clinical Development, Molecular Therapy, Vol 4, Mar. 17, 2017.
The modified Tcells were thawed and divided into two groups and cultured, respectively. CAR T-TSHR cells in Group 1 were cultured with anti-CD3 & CD28 beads and IL2 for 10 days, while CAR T-TSHR cells in Group 2 were cultured with various concentrations of soluble TSHR (e.g., extracellular domain of TSHR, SEQ ID: 34), anti-CD3 & CD28 beads and IL2. For Group 2, 500,000 CAR T-TSHR cells were cultured with 10, 125, 500 ng/ml of soluble TSHR ECD for 14 days. The T cell population was observed by flow cytometry (FIGS. 8 and 9), and cellular morphology of the T cell population was observed under microscopes (FIG. 10).

The test system of the next assay is CAR T19 cells. Nature of the assay: Culture of CAR T19 cells with or without soluble CD19 ECD. Format: cell-based, human. On the procedure:
The primary T cells were transduced with lentiviral vectors encoding a CD19 CAR to obtain modified T cells including CAR T cells expressing anti-CD19 (thereafter “CAR T19 cells”) on day 1. The modified T cells were divided into two groups and cultured, respectively. CAR T19 cells in Group 1 were cultured with anti-CD3 & CD28 beads and IL2, while CAR T19 cells in Group 2 were cultured with soluble CD19 (e.g., extracellular domain (ECD) of CD19, SEQ ID: 41), anti-CD3 & CD28 beads and IL2. For Group 2, 500,000 CAR T19 cells were cultured with 2 micrograms of soluble CD19 at the starting point, and 4 micrograms of soluble CD19 were used after the CAR T19 cells were grown. The numbers of cells were measured, and ratios between CAR+ cells and the modified T cell population were observed by flow cytometry. The number of CAR copies in the cell population was measured.
T cell phenotypes were further observed. […] Memory cell marker CD62L on CAR+ and CAR-cells were analyzed to determine phenotypes of cultured T cell population.
CAR T19 cells were cultured with CD19 for over 15 days and then were divided into Group 3 and Group 4. CAR T19 cells in Group 3 were continuously cultured with soluble CD19, while CAR T19 cells in Group 4 were cultured without CD19.

Assay [2] is described as follows: Survival and growth of various CAR T cells in vitro (FIG. 43). Format: cell-based, human. The conditions noted are these: medium containing CD19 ECD vs no CD19 ECD. The text has this:
In Group 1 (hTert CD19 CAR), the primary T cells obtained from a healthy donor were transduced with a nucleic acid sequence encoding a CD19 CAR and a nucleic acid sequence encoding hTERT. In Group 2 (CD19 CAR), the primary T cells were transduced with the nucleic acid sequence encoding a CD19 CAR. […] CAR T cells are not comprising the nucleic acid sequence encoding hTERT begun to die after about 20 days after cells were transduced with the nucleic acid sequence encoding CAR.

The next assay has as its system CAR T cells. Nature of the assay: Long-term culture of CAR T cells (groups A-D) with CD19 antigen, flow cytometry. Format: cell-based, human. An excerpt:
Various CARs (A, B, C, and D) were constructed by linking a signal peptide (SEQ ID NO: 38), antigen-specific single-chain variable fragment (scFv) (SEQ ID NO: 55 or 21), hinge domain (SEQ ID NOs: 68, 69, 70, or 71), a transmembrane domain (SEQ ID NO: 72, 73, 74, or 75), one or more co-stimulation domains (SEQ ID NO: 3), CD3-ζ (SEQ ID NO: 40), and EGFP, respectively (See FIGS. 12 and 13).
Primary T cells were obtained from the peripheral blood of volunteers. The magnetic beads negative selection was performed using Pan-T kit from Miltenyi Biotec, Inc. to collect T cells from the peripheral blood. On the second day after primary T cell isolation, the collected T cells were infected with lentivirus containing A, B, C, and D CARs, respectively (i.e., Lenti-CARs-IRES-EGFP) to prepare CAR T cells.
On the 14th day after infection, 15,000 CAR T cells of each group were collected, and cultured with 1000 ng/ml CD 19 antigen (i.e., recombinant human CD19 protein. After 15 days of stimulation, the concentration of CD19 was changed to 400 ng/ml. After 20 days of stimulation, the concentration of CD19 was changed to 200 ng/ml and maintained until about 130 days.
The expression of CARs and cell morphology were observed using flow cytometry on day-2, day 15 (FIGS. 14-17), day 17 (FIG. 20), day 65 and day 130 at the beginning of the stimulus. […]
A general note: Flow cytometry measures light scatter and fluorescence of single cells or particles in a stream.

For a further assay, the system named is K562-CD19. Nature of the assay: IFN-gamma release of CAR T19 cells co-cultured with K562-CD19. Format: cell-based. Conditions: after 24 hours; Group 2 (pre-cultured with CD19) vs Group 1; E:T 1:1 or 1:10. On the procedure: CAR T19 cells of Group 1 and Group 2 were cultured for about one to three weeks using the protocols described above, respectively. CAR T19 cells were then washed and placed into cultures without CD19. These CAR T19 cells were co-cultured with K562-CD19 (E:T 1:1 or 1:10). After 24 hours, 48 hours, and 72 hours, supernatant of the cultures were collected, and IFN-gamma released by the cells were measured to determine functions of CAR T19 cells.

Assay [3] relates to anti-CD19 CAR proliferable T cells. The assay can be described thus: Culture of anti-CD19 CAR proliferable T cells with CD19 ECD. Format: cell-based, human. The conditions noted are these: CD19 ECD added to media (1 mg/250,000 CAR T cells). The text has this:
The primary T cells obtained from a healthy donor were transduced with lentiviral vectors encoding a CD19 CAR (SEQ ID NO: 21) and lentiviral vectors including sequence 1 or 6 as illustrated in FIG. 1 (ef1a-TK-IRES-rtTA-TRE-hTERT: SEQ ID NOs: 1, 2, 3, 4, 5, and 6 in the 5′ to 3′ order or ef1a-rtTA-TRE-hTERT: SEQ ID Nos: 1, 4, 5, and 6 in the 5′ to 3′ order) to obtain transduced T cells including immortalized T cells expressing anti-CD19 CAR (thereafter “anti-CD19 CAR proliferable T cells”) on day one. The anti-CD19 CAR proliferable T cells were divided into various groups and cultured in different media: in the presence of various concentrations of doxycycline (Dox), CD19 extracellular domain (ECD), and/or Ganciclovir (GCV)). In some groups, CD19 ECD (SEQ ID NO: 22) was added to media (1 mg/250,000 CAR T cells), and percentages of cells expressing CD19 CAR increased.

With `Nc1nc(O)c2ncn(COC(CO)CO)c2n1` [GCV, Ganciclovir], in assay [1], the “growth of DTT cells (transduced T cells)” value is on record as “grew poorly” and the “growth of NT (non-transduced T cells)” value is reported as “continued to grow”.
On to “TSHR ECD: soluble TSHR, extracellular domain of TSHR, SEQ ID: 34”, for which the “ratio (P1) of CAR+ cells and the CAR T-TSHR cells” value in the assay with CAR T-TSHR cells (500 ng/ml soluble TSHR ECD) is “significantly increased”. Also, the cell debris entry in the assay on CAR T-TSHR cells (as the proportion of added antigen (TSHR-ECD) increased) was “decreased”. In addition, in the assay on CAR T-TSHR cells (under 500 ng antigen stimulation), the “MFI value (CAR fluorescence)” value is listed as “increased”. Further, the “SSC-A dispersible FSC low population” value in the assay with CAR T-TSHR cells (with increasing concentrations of TSHR ECD (10, 125, 500 ng/ml)) is “decreased”.

B1: CD19 ECD: soluble CD19, extracellular domain (ECD) of CD19, SEQ ID: 41 / SEQ ID NO: 22; recombinant human CD19 protein (protein)
chain: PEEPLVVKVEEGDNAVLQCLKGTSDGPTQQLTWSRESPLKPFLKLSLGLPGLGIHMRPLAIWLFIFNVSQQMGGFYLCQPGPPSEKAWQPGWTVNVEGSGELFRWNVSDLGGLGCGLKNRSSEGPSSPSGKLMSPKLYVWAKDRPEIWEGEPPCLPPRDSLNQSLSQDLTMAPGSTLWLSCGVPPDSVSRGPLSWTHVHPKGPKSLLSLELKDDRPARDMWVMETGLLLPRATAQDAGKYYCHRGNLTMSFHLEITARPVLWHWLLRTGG
Turning to B1, the “cells showing the phenotype of memory cells (CD62L hi)” value in the assay with CAR T19 cells (CAR T19 cells of Group 2 (cultured with CD19), day 30) is listed as “entire or majority cells”. For the same molecule, in the assay on CAR T19 cells (CD19 ECD added to media vs culturing without CD19 ECD, about day 3 to day 10, non-transduced T cells and CD19 CAR T cells), the “cell expansion during the early stage” value is “no apparent increases”. In addition, the “ratio of CAR T19 cells and T cells (flow cytometry)” value in the assay with CAR T19 cells (Group 2 (soluble CD19) vs Group 1) is listed as “higher”. Also, in the assay with CAR T19 cells (Group 2 (soluble CD19) vs Group 1 (no CD19)), the “copy numbers of CAR T19 cells (qPCR)” value is “higher”. Moreover, in the assay with CAR T19 cells (Group 2, day 30 after the starting point), the “ratio of CAR T19 cells and T cells” value is reported as “continued to rise”. Moreover, the “numbers of CAR+ cells” value with CAR T19 cells (Group 4 (CD19 removed after over 15 days) vs Group 3 (continued soluble CD19), Day 27) is listed as “relatively lower”. Also, in the assay on CAR T19 cells (vs cells cultured without the CD19 ECD, after about day 10), the “cell expansion rates of CD19 CAR T cells after the early stage” value is reported as “increased at a higher rate”. In addition, the “cell growth rates of hTERT CAR T cells” value in assay [2] is on record as “higher cell growth rates”. For the same molecule, in the assay on CAR T cells (CD19-stimulated cells vs parallel untreated), the “percentage of CD4 cells” value was “increased”. Besides, in the assay on CAR T cells (after CD19 stimulation), the “proportion of CAR+EGFP+ cells” value is recorded as “increase”. For the same molecule, in the assay on K562-CD19, the IFN-gamma released result was “significantly higher”. For the same molecule, the “percentages of cells expressing CD19 CAR” value in assay [3] is “increased”.
